How the values were obtained:
[1] = substrate: C[C@H](O)[C@H](O)[C@H]1CNc2nc(N)[nH]c(=O)c2N1; test: purified protein, by the assay type; details: other: rat liver enzyme; Km of substrate with the pterin as cofactor
[2] = substrate: C[C@H](O)[C@H](O)[C@H]1CNc2nc(N)[nH]c(=O)c2N1; test: cells, lysate or membranes named; details: other: Km of substrate with the pterin as cofactor

B1: Phenylalanine hydroxylase (Rattus norvegicus) (protein)
chain: MAAVVLENGVLSRKLSDFGQETSYIEDNSNQNGAISLIFSLKEEVGALAKVLRLFEENDINLTHIESRPSRLNKDEYEFFTYLDKRTKPVLGSIIKSLRNDIGATVHELSRDKEKNTVPWFPRTIQELDRFANQILSYGAELDADHPGFKDPVYRARRKQFADIAYNYRHGQPIPRVEYTEEEKQTWGTVFRTLKALYKTHACYEHNHIFPLLEKYCGFREDNIPQLEDVSQFLQTCTGFRLRPVAGLLSSRDFLGGLAFRVFHCTQYIRHGSKPMYTPEPDICHELLGHVPLFSDRSFAQFSQEIGLASLGAPDEYIEKLATIYWFTVEFGLCKEGDSIKAYGAGLLSSFGELQYCLSDKPKLLPLELEKTACQEYSVTEFQPLYYVAESFSDAKEKVRTFAATIPRPFSVRYDPYTQRVEVLDNTQQLKILADSINSEVGILCNALQKIKS
B1 gave a Km [1] of 123 µM.

B2: Tryptophan hydroxylase (Rattus norvegicus) (protein)
chain: MQPAMMMFSSKYWARRGLSLDSAVPEEHQILGGLTQNKATASKSEDKRSGKDTSESSKTAVVFSLKNEVGGLVRALRLFQEKHVNMLHIESRRSRRRSSEVEIFVDCECGKTEFNELIQLLKFQTTIVTLNPPDNIWTEEEELEDVPWFPRKISELDRCSHRVLMYGTELDADHPGFKDNVYRQRRKYFVDVAMGYKYGQPIPRVEYTEEETKTWGVVFRELSKLYPTHACREYLKNFPLLTKYCGYREDNVPQLEDVSMFLKERSGFTVRPVAGYLSPRDFLAGLAYRVFHCTQYVRHGSDPLYTPEPDTCHELLGHVPLLADPKFAQFSQEIGLASLGASDEDVQKLATCYFFTIEFGLCKQEGQLRAYGAGLLSSIGELKHALSDKACVKAFDPKTTCLQECLITTFQDAYFVSESFEEAKEKMRDFAKSITRPFSVYFNPYTQSIEILKDTRSIENVVQDLRSDLNTVCDALNKMNQYLGI
B2 gave a Km [2] of 15 µM.
